Reference: patent US20230192890A1
Each block holds one binder with its values, some of them ahead of it.

Legend:
[1] = target: full-length recombinant mouse PAD4 (mouse) (UniProt Q9Z183); assay: ELISA, mouse PAD4 on plate, antibody 6.104E-05 ug/mL
[2] = target: full-length recombinant mouse PAD4 (mouse) (UniProt Q9Z183); assay: ELISA, mouse PAD4 on plate, antibody 0.0625 ug/mL
[3] = target: T1, Ala mutant having 3-amino acid substitution, SEQ ID NO: 46 (human); assay: ELISA, peptide on plate (10 ug/mL)
T1 sequence (peptide): EENMDDAAAQDEMEIGY

[4] = target: T2, Ala mutant SEQ ID NO: 28 (human); assay: ELISA, peptide on plate (10 ug/mL)
T2 sequence (peptide): EANMDDQWMQDEMEIGY

[5] = target: T3, Ala mutant SEQ ID NO: 41 (human); assay: ELISA, peptide on plate (10 ug/mL)
T3 sequence (peptide): EENMDDQWMQDEMEAGY

[6] = target: T4, Ala mutant SEQ ID NO: 36 (human); assay: ELISA, peptide on plate (10 ug/mL)
T4 sequence (peptide): EENMDDQWMADEMEIGY

[7] = target: T5, Ala mutant SEQ ID NO: 38 (human); assay: ELISA, peptide on plate (10 ug/mL)
T5 sequence (peptide): EENMDDQWMQDAMEIGY

[8] = target: T6, Ala mutant having 3-amino acid substitution, SEQ ID NO: 49 (human); assay: ELISA, peptide on plate (10 ug/mL)
T6 sequence (peptide): EENMDDQWMQDEMEIAA

[9] = target: T7, Ala mutant SEQ ID NO: 37 (human); assay: ELISA, peptide on plate (10 ug/mL)
T7 sequence (peptide): EENMDDQWMQAEMEIGY

[10] = target: T8, Ala mutant SEQ ID NO: 29 (human); assay: ELISA, peptide on plate (10 ug/mL)
T8 sequence (peptide): EEAMDDQWMQDEMEIGY

[11] = target: T9, Ala mutant having 3-amino acid substitution, SEQ ID NO: 48 (human); assay: ELISA, peptide on plate (10 ug/mL)
T9 sequence (peptide): EENMDDQWMQDEAAAGY

[12] = target: T10, Ala mutant having 3-amino acid substitution, SEQ ID NO: 47 (human); assay: ELISA, peptide on plate (10 ug/mL)
T10 sequence (peptide): EENMDDQWMAAAMEIGY

[13] = target: T11, Ala mutant SEQ ID NO: 40 (human); assay: ELISA, peptide on plate (10 ug/mL)
T11 sequence (peptide): EENMDDQWMQDEMAIGY

[14] = target: T12, Ala mutant SEQ ID NO: 42 (human); assay: ELISA, peptide on plate (10 ug/mL)
T12 sequence (peptide): EENMDDQWMQDEMEIAY

[15] = target: T13, Ala mutant SEQ ID NO: 31 (human); assay: ELISA, peptide on plate (10 ug/mL)
T13 sequence (peptide): EENMADQWMQDEMEIGY

[16] = target: T14, Ala mutant having 3-amino acid substitution, SEQ ID NO: 44 (human); assay: ELISA, peptide on plate (10 ug/mL)
T14 sequence (peptide): AAAMDDQWMQDEMEIGY

[17] = target: T15, Ala mutant SEQ ID NO: 39 (human); assay: ELISA, peptide on plate (10 ug/mL)
T15 sequence (peptide): EENMDDQWMQDEAEIGY

[18] = target: T16, Ala mutant SEQ ID NO: 33 (human); assay: ELISA, peptide on plate (10 ug/mL)
T16 sequence (peptide): EENMDDAWMQDEMEIGY

[19] = target: T17, Ala mutant SEQ ID NO: 43 (human); assay: ELISA, peptide on plate (10 ug/mL)
T17 sequence (peptide): EENMDDQWMQDEMEIGA

[20] = target: T18, Ala mutant SEQ ID NO: 27 (human); assay: ELISA, peptide on plate (10 ug/mL)
T18 sequence (peptide): AENMDDQWMQDEMEIGY

[21] = target: T19, Ala mutant SEQ ID NO: 30 (human); assay: ELISA, peptide on plate (10 ug/mL)
T19 sequence (peptide): EENADDQWMQDEMEIGY

[22] = target: T20, TA0096 (peptide antigen corresponding to positions 340 to 356 of PAD4) (human); assay: ELISA, peptide on plate (10 ug/mL)
T20 sequence (peptide): EENMDDQWMQDEMEIGY

[23] = target: full-length recombinant mouse PAD4 (mouse) (UniProt Q9Z183); assay: ELISA, mouse PAD4 on plate, antibody 0.0002441 ug/mL
[24] = target: full-length recombinant mouse PAD4 (mouse) (UniProt Q9Z183); assay: ELISA, mouse PAD4 on plate, antibody 0.0039063 ug/mL
[25] = target: full-length recombinant mouse PAD4 (mouse) (UniProt Q9Z183); assay: ELISA, mouse PAD4 on plate, antibody 0.015625 ug/mL
[26] = target: full-length recombinant mouse PAD4 (mouse) (UniProt Q9Z183); assay: ELISA, mouse PAD4 on plate, antibody 0.0009766 ug/mL
[27] = target: full-length recombinant mouse PAD4 (mouse) (UniProt Q9Z183); assay: ELISA, mouse PAD4 on plate, antibody 0.25 ug/mL
[28] = target: full-length recombinant mouse PAD4 (mouse) (UniProt Q9Z183); assay: ELISA, mouse PAD4 on plate, antibody 1 ug/mL

Sequence of full-length recombinant mouse PAD4 (mouse) (Q9Z183 whole entry): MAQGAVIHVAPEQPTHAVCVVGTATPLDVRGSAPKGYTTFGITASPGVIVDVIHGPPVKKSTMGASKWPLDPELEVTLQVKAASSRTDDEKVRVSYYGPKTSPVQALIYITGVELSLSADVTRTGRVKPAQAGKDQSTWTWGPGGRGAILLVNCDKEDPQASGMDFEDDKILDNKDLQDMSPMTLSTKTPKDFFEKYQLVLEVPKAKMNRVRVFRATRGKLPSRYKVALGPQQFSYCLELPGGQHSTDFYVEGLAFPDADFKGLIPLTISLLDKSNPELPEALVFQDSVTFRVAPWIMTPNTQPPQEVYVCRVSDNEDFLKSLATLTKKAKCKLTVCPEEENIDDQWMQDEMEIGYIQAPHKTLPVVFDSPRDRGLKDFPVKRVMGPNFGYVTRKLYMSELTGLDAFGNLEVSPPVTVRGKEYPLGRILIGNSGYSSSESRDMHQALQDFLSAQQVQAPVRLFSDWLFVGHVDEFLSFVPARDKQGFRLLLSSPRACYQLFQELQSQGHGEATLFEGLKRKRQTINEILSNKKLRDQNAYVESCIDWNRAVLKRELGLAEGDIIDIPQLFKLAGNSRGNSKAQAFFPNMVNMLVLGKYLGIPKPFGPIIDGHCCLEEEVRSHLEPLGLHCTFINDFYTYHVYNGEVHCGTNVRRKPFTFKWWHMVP

- absorbance 490 nm/630 nm [1]: 0.122 OD
- absorbance 490 nm/630 nm [2]: 2.22 OD
- absorbance 490 nm/630 nm [3]: 0.178 OD
- absorbance 490 nm/630 nm [4]: 1.94 OD
- absorbance 490 nm/630 nm [5]: 1.85 OD
- absorbance 490 nm/630 nm [6]: 1.92 OD
- absorbance 490 nm/630 nm [7]: 1.91 OD
- absorbance 490 nm/630 nm [8]: 1.86 OD
- absorbance 490 nm/630 nm [9]: 1.88 OD
- absorbance 490 nm/630 nm [10]: 1.91 OD
- absorbance 490 nm/630 nm [11]: 1.88 OD
- absorbance 490 nm/630 nm [12]: 1.86 OD
- absorbance 490 nm/630 nm [13]: 1.89 OD
- absorbance 490 nm/630 nm [14]: 1.86 OD
- absorbance 490 nm/630 nm [15]: 1.85 OD
- absorbance 490 nm/630 nm [16]: 1.9 OD
- absorbance 490 nm/630 nm [17]: 1.88 OD
- absorbance 490 nm/630 nm [18]: 1.98 OD
- absorbance 490 nm/630 nm [19]: 1.92 OD
- absorbance 490 nm/630 nm [20]: 1.96 OD
- absorbance 490 nm/630 nm [21]: 1.93 OD
- absorbance 490 nm/630 nm [22]: 1.88 OD
- absorbance 490 nm/630 nm [23]: 0.205 OD
- absorbance 490 nm/630 nm [24]: 1.42 OD
- absorbance 490 nm/630 nm [25]: 2.25 OD
- absorbance 490 nm/630 nm [26]: 0.555 OD
- absorbance 490 nm/630 nm [27]: 2.25 OD
- absorbance 490 nm/630 nm [28]: 2.26 OD
B1: G8 (antibody, IgG1, V domains shown)
VH: AVTLDESGGGLQTPGGALSLVCKASGFTFSTYAMGWMRQAPGKGLEYVAAIRNDGSWTGYGAAVKGRATILRDNGQSTVRLQLSNLRAEDTGTYYCAKYTGSSGGSIGAWGHGTEVIVS
VL: ASTQPSSVSANLGGTVEITCSGGNRNYYYGWYQQKSPGSAPVTLIYANDKRPSNIPSRFSGSKSGSTGTLTITGVQAEDEAVYFCGTADTGKYVFGAGTTLTVL

- absorbance 490 nm/630 nm [1]: 0.103 OD
- absorbance 490 nm/630 nm [2]: 2.29 OD
- absorbance 490 nm/630 nm [4]: 1.95 OD
- absorbance 490 nm/630 nm [5]: 1.83 OD
- absorbance 490 nm/630 nm [6]: 1.87 OD
- absorbance 490 nm/630 nm [7]: 1.99 OD
- absorbance 490 nm/630 nm [8]: 1.86 OD
- absorbance 490 nm/630 nm [9]: 1.86 OD
- absorbance 490 nm/630 nm [10]: 1.9 OD
- absorbance 490 nm/630 nm [11]: 1.87 OD
- absorbance 490 nm/630 nm [12]: 1.67 OD
- absorbance 490 nm/630 nm [13]: 1.86 OD
- absorbance 490 nm/630 nm [14]: 1.85 OD
- absorbance 490 nm/630 nm [15]: 0.462 OD
- absorbance 490 nm/630 nm [16]: 1.9 OD
- absorbance 490 nm/630 nm [17]: 1.81 OD
- absorbance 490 nm/630 nm [18]: 1.87 OD
- absorbance 490 nm/630 nm [19]: 1.87 OD
- absorbance 490 nm/630 nm [20]: 1.9 OD
- absorbance 490 nm/630 nm [21]: 1.95 OD
- absorbance 490 nm/630 nm [22]: 1.82 OD
- absorbance 490 nm/630 nm [23]: 0.224 OD
- absorbance 490 nm/630 nm [24]: 1.41 OD
- absorbance 490 nm/630 nm [25]: 2.26 OD
- absorbance 490 nm/630 nm [26]: 0.55 OD
- absorbance 490 nm/630 nm [27]: 2.31 OD
- absorbance 490 nm/630 nm [28]: 2.3 OD
B2: H7 (antibody, IgG1, V domains shown)
VH: B1 VH
VL: ASTQPSSVSANPGGTVEITCSGGSGRYYYGWYQQKSPGSAPVTVIYSSTHRPSNIPSRFSGSKSGSTATLTITGVQAEDEAVYFCGTADSSSYVFGAGTTLTVL
